Assay results taken from publication PMC9308819 (Nature Communications, 2022).
Where a chain is given by its changes, count along the chain named. Numbers in names are those of the source.

T1: Rab34 (Homo sapiens, UniProt Q9BZG1, Q111L)
T1 construct: full-length Rab34 from E. coli, preparatively loaded with GppNHp
T1 sequence (Q9BZG1 1-237 Q111L): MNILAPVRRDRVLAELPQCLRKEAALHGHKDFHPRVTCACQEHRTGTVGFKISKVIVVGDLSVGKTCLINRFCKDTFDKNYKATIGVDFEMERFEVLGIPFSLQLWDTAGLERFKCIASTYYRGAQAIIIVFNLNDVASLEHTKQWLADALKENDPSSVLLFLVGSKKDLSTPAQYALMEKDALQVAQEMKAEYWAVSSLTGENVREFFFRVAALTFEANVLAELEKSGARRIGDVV

T2: Rep15, full length (natural N101D variant) (human, UniProt Q6BDI9 1-236, N101D)
T2 sequence: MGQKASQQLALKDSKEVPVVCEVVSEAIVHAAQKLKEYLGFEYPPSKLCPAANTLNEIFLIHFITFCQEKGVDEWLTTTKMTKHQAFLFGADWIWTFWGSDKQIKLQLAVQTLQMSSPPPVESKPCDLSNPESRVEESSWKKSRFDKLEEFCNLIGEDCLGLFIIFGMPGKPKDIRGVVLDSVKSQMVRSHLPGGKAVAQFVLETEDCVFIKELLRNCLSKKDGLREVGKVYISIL

T3: Rab34 Q111L F114Y, purified (human, UniProt Q9BZG1 1-237, Q111L | F114Y)
T3 sequence: T1 sequence (Q9BZG1 1-237 Q111L) with F114Y

T4: Rab34 Q111L 1-237 (dominant active), purified, GTP-loaded (human, UniProt Q9BZG1 1-237, Q111L)
T4 construct: Rab34, human, residues 1-237 with Q111L; also called Rab34_(Q111L_1-237aa)
T4 sequence (looked up): T1 sequence (Q9BZG1 1-237 Q111L)

B1: Rab27A F81Y, purified (natural protein, human, UniProt P51159 1-221, looked up)
chain: MSDGDYDYLIKFLALGDSGVGKTSVLYQYTDGKFNSKFITTVGIDFREKRVVYRASGPDGATGRGQRIHLQLWDTAGQERYRSLTTAFFRDAMGFLLLFDLTNEQSFLNVRNWISQLQMHAYCENPDIVLCGNKSDLEDQRVVKEEEAIALAEKYGIPYFETSAANGTNISQAIEMLLDLIMKRMERCVDKSWIPEGVVRSNGHASTDQLSEEKEKGACGC
notes: Rab27A, human, with F81Y; also called F81Y Rab27A; source: E. coli, purified
B2: Rab27A, purified (natural protein)
chain: B1 chain with Y81F
B3: Rab3B, purified, GppNHp-loaded (natural protein, human)
chain: MASVTDGKTGVKDASDQNFDYMFKLLIIGNSSVGKTSFLFRYADDTFTPAFVSTVGIDFKVKTVYRHEKRVKLQIWDTAGQERYRTITTAYYRGAMGFILMYDITNEESFNAVQDWATQIKTYSWDNAQVILVGNKCDMEEERVVPTEKGQLLAEQLGFDFFEASAKENISVRQAFERLVDAICDKMSDSLDTDPSMLGSSKNTRLSDTPPLLQQNCSC
notes: Rab3B, human; also called Rab3B_(GppNHp); source: E. coli BL21 Codon-Plus (DE3)-RIL, purified (Ni Sepharose, TEV cleavage, gel filtration)
B4: Rab3D, purified, GppNHp-loaded (natural protein, human, UniProt O95716 1-219, looked up)
chain: MASAGDTQAGPRDAADQNFDYMFKLLLIGNSSVGKTSFLFRYADDSFTPAFVSTVGIDFKVKTVYRHDKRIKLQIWDTAGQERYRTITTAYYRGAMGFLLMYDIANQESFAAVQDWATQIKTYSWDNAQVILVGNKCDLEDERVVPAEDGRRLADDLGFEFFEASAKENINVKQVFERLVDVICEKMNESLEPSSSSGSNGKGPAVGDAPAPQPSSCSC
notes: Rab3D, human; source: E. coli BL21 Codon-Plus (DE3)-RIL, purified (Ni Sepharose, TEV cleavage, gel filtration)
B5: Rep15, full length (natural N101D variant) (natural protein, human, UniProt Q6BDI9 1-236, looked up)
chain: T2 sequence
notes: also called full-length Rep15; Rab15 effector protein
B6: Rab15, purified, nucleotide-loaded (natural protein, human, UniProt P59190 1-212, looked up)
chain: MAKQYDVLFRLLLIGDSGVGKTCLLCRFTDNEFHSSHISTIGVDFKMKTIEVDGIKVRIQIWDTAGQERYQTITKQYYRRAQGIFLVYDISSERSYQHIMKWVSDVDEYAPEGVQKILIGNKADEEQKRQVGREQGQQLAKEYGMDFYETSACTNLNIKESFTRLTELVLQAHRKELEGLRMRASNELALAELEEEEGKPEGPANSSKTCWC
notes: Rab15, human; Loaded with GppNHp (aSEC, ITC) or mant-GppNHp / mant-dGppNHp (stopped flow); also called Rab15_(GppNHp); Rab15_(mant-GppNHp); source: E. coli BL21 Codon-Plus (DE3)-RIL, purified (Ni Sepharose, TEV cleavage, gel filtration)
B7: Rab3A Y84F, purified (natural protein)
chain: MASATDSRYGQKESSDQNFDYMFKILIIGNSSVGKTSFLFRYADDSFTPAFVSTVGIDFKVKTIYRNDKRIKLQIWDTAGQERFRTITTAYYRGAMGFILMYDITNEESFNAVQDWSTQIKTYSWDNAQVLLVGNKCDMEDERVVSSERGRQLADHLGFEFFEASAKDNINVKQTFERLVDVICEKMSESLDTADPAVTGAKQGPQLSDQQVPPHQDCAC
B8: Rab3A V61N, purified (natural protein, human, UniProt P20336 1-220, looked up)
chain: B7 chain with V61N, F84Y
notes: Rab3A, human, with V61N; Tag as told for the 6His-tagged Rab3 paralogs in general; source: E. coli BL21 Codon-Plus (DE3)-RIL, purified

What was measured:
Rab34 = target: T1, Rab34; assay: nucleotide loading, C18 reversed-phase HPLC of bound nucleotide; type: binding
[1] = target: T2, Rep15, full length (natural N101D …); assay: ITC
[2] = target: B5; assay: ITC; 500/600 µM GppNHp/GTP Rab titrated into 50/60 µM Rep15; 20 mM Hepes 8.0, 50 mM NaCl, 1 mM MgCl2, 1 mM TCEP; one-site-binding model; conditions: both partners purified
[3] = target: B5; assay: SEC; analytical SEC; 110 µM Rep15 and 121 µM Rab mixed; Superdex 75 10/300 GL; 20 mM Hepes 8.0, 50 mM NaCl, 1 mM MgCl2, 2 mM DTE; room temperature; conditions: both partners purified
[4] = target: T2, Rep15, full length (natural N101D …); assay: ITC; remark: listed apart in the source
[5] = target: T3, Rab34 Q111L F114Y, purified; assay: ITC
[6] = target: T4, Rab34 Q111L 1-237 (dominant active), …; assay: ITC; 500/600 µM GppNHp/GTP Rab titrated into 50/60 µM Rep15; 20 mM Hepes 8.0, 50 mM NaCl, 1 mM MgCl2, 1 mM TCEP; one-site-binding model; conditions: both partners purified
[7] = target: B5; assay: fluorescence polarisation; stopped flow, association; mant-GppNHp Rab15 mixed with increasing Rep15 (2.5–25 µM); 25 °C; 20 mM Hepes 8.0, 50 mM NaCl, 2 mM MgCl2, 2 mM DTE; kobs against Rep15 concentration, koff from the intercept, KD as koff/kon; conditions: both partners purified
[8] = target: Rep15, full length (natural N101D variant) (human) (UniProt Q6BDI9); assay: ITC; 500/600 µM GppNHp/GTP Rab titrated into 50/60 µM Rep15; 20 mM Hepes 8.0, 50 mM NaCl, 1 mM MgCl2, 1 mM TCEP; one-site-binding model

Molecule: Nc1nc2c(ncn2[C@@H]2O[C@H](COP(=O)(O)OP(=O)(O)NP(=O)(O)O)[C@@H](O)[C@H]2O)c(=O)[nH]1 [GppNHp, Guanosine-5′-[β-γ-Imido]-triphosphate]
- nucleotide loading, C18 reversed-phase HPLC of bound nucleotide (Rab34; preparative nucleotide exchange, mixture with GppNH2): apart from GppNHp, Rab34 is also bound to GppNH2 (hydrolysis product of GppNHp)

Molecule: Nc1nc2c(ncn2[C@@H]2O[C@H](COP(=O)(O)OP(N)(=O)O)[C@@H](O)[C@H]2O)c(=O)[nH]1 [GppNH2]
- nucleotide loading, C18 reversed-phase HPLC of bound nucleotide (Rab34; formed during loading with GppNHp, mixture with GppNHp): apart from GppNHp, Rab34 is also bound to GppNH2 (hydrolysis product of GppNHp)

Molecule: B1
- Kd [1]: 10800 nM
- fold increase in affinity against wild-type Rab27A [2]: > 8 fold

Molecule: B2
- Kd [1]: 86200 nM

Molecule: B3
- binding result [3]: binds
- Kd [4]: 2160 nM

Molecule: B4
- binding result [3]: binds
- Kd [4]: 790 nM

Molecule: B5
- Kd [5]: 78.7 nM
- Kd [6]: 64 ± 32 nM

Molecule: B6
- Kd [7]: 580 nM
- koff [7]: 4.73 s⁻¹
- kon [7]: 8.16e+06 M⁻¹ s⁻¹
- Kd [2]: 470 ± 120 nM
- stoichiometry N [2]: 1

Molecule: B7
- fold reduction in affinity against wild-type Rab3A [8]: 23 fold
- Kd [1]: 11100 nM

Molecule: B8
- Kd [1]: 390 nM
- binding result [2]: binds
